This is an account of results in patent US20170212131A1 (NEW YORK UNIVERSITY, published 2017).

The target of test [1] is T1, Tau-phospho-serine 396/404 peptide.
T1 construct: Synthetic 30-residue peptide (Keck Foundation, Yale University) used for panning, ELISA and Biacore
Kind of test: SPR (Biacore 2000), antibody immobilized, peptide as analyte. Here is the method:
(§1) Briefly, scFv235/antibody (10 μg/ml) was diluted in 10 mM sodium acetate, pH 5.0, and was immobilized on a separate CMS sensor chip with an amine coupling kit (7 min contact time at 5 μl/min flow rate). Unreacted surface-bound material was blocked with ethanolamine. One channel of each sensor chip, prepared in the same way without scFv235 or antibody, was used to monitor the nonspecific binding of the peptide. All measurements were done with HBS-EP buffer (10 mM HEPES at pH 7.4, 150 mM NaCl, 3.4 mM EDTA and 0.005% surfactant P20) at flow rate of 5 μl/min at 25° C. After each measurement, the chip surface was regenerated with 10 μl of a buffer containing 500 mM NaCl and 0.1M glycine HCl, pH 8.0. […] Table 5 and Table 6 summarize the kinetics and specificity of binding of the 6B2G12 antibody and scFv235.

Test [2] shares this target. The test is described as above. Here is the method:
as §1
The source holds these as a separate data set.

For test [3] the target is unchanged. Kind of test: ratio of SPR KD values.
For test [4] the target is unchanged. Description: ratio of association/dissociation from SPR.
Test [5] shares this target. Kind of test: SPR (Biacore 2000), scFv immobilized, peptide as analyte. Here is the method:
as §1
A general note: SPR reads the build-up and loss of mass on a sensor chip optically.

Test [6] shares this target. Described as above. The method, then: as §1
The source holds these as a separate data set.

B1: antibody 6B2G12 (antibody, V domains shown)
VH: EVQLQQSGPELVKPGASVKISCKTSEYTFTEYTKHWVKQSHGKSLEWIGSINPNNGDTYYNQKFTDKATLTVDKSSTTASMELRSLTFEDSAVYYCAMGDSAWFAYWGQGTLVTVS
VL: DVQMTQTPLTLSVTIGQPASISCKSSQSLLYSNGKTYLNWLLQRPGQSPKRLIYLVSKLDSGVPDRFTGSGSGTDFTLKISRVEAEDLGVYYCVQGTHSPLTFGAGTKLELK
notes: Monoclonal antibody from hybridoma clone 6B2G12, whole antibody (about 150 kDa); also called parent antibody; parental antibody
Regarding B1, the Kd – broadly, the constant that tells how readily two partners part at equilibrium – in test [1] came out at 0.395 nM. In test [2], the Kd was found to be 0.395 nM, the koff (commonly a measure of how fast the partners let go of each other) stood at 0.00146 s⁻¹ and the kon (usually a measure of how fast the partners come together) worked out at 3.69e+06 M⁻¹ s⁻¹.

B2: scFv235 (scFv, not shown: small tags and cut ends)
scFv: ELDVVMTQTPLTLSVTIGQPASISCKSSQSLLYSNGKTYLNWLLQRPGQSPKRLIYLVSKLDSGVPDRFTGSGSGTDFTLKISRVEAEDLGVYYCVQGTHSPLTFGAGTKLELKSSGGGGSGGGGGGSSRSSLEVQLQQSGPELVKPGASVKISCKTSEYTFTEYTKHWVKQSHGKSLEWIGSINPNNGDTYYNQKFTDKATLTVDKSSTTASMELRSLTFEDSAVYYCAMGDSAWFAYWGQGTLVTVSA
notes: Made in E. coli from the phage display library of hybridoma 6B2G12; also called the scFv; His-tagged scFv235
Regarding B2, in test [3], the “selectivity for the phosphorylated peptide (SEQ ID NO:28) relative to the non-phosphorylated peptide (SEQ ID NO:27)” value is 3900 fold. In addition, the “fold lower affinity than antibody 6B2G12” value in test [4] was around 2510 fold. Also, the affinity in test [5], expressed as Kd, was 1040 nM. In test [6], this molecule registered a Kd of 994 nM, a koff of 0.0039 s⁻¹ and a kon of 3930 M⁻¹ s⁻¹.
